These results are taken from US20110311550A1 (Scripps Research, published 2011).

Assay [1] has as its target T1, HCV E1E2 complex, isolate H77 (genotype 1a) (hepatitis C virus genotype 1a, isolate …, UniProt P27958 192-383; P27958 384-746). The assay is described as follows: ELISA, mAb with E1E2 (H77), then CD81-LEL plate.
Assay [2] deals with T1, HCV E1E2 complex, isolate H77 (genotype …). The assay is described as follows: apparent affinity: half-maximal binding, ELISA on lectin-captured E1E2.
In assay [3] the target is HCV E1E2 complex, isolate HCV-1 (genotype 1a), vaccinia-expressed (hepatitis C virus genotype 1a, isolate …, UniProt P26664 192-383; P26664 384-746). The description is as above.
For assay [4], the target named is T1, HCV E1E2 complex, isolate H77 (genotype …). The assay is described as follows: Fab screen after panning on antibody-masked E1E2 (H77).

B1: MAb AR3C (IgG1 from Fab H3) (antibody, V domains shown)
VH: LEQSGAEVKKPGSSVKVSCETSGGTLDNYALNWVRQAPGQGLEWIGGVVPLFGTTRNAQKFQGRVTISDDKSTGTGHMELRSLRSEDTAVYYCVRSVTPRYCGGGFCYGEFDYWGQGTLVTVSS
VL: ELTQSPATLSVSPGERATLSCRASQSVSSNLAWYQQKPGQAPRLLIYGASTRATGIPARFSGSGSGTEFTLTVSRLEPEDSAVYFCQQYYRSPLTFGGGTKVEIKR
On to B1, for which the midpoint of inhibition in assay [1], the IC50, lay at 2 nM. Besides, the EC50 in assay [2] worked out at 2.3 nM; in assay [3] it was 1.4 nM.

B2: Fab B7 (Fab, V domains shown)
VH: VQLLEQSGAEVKKPGSSVKVSCRASGSPYSSYTITWVRQAPGQGLEWMGGIILMTGKANYAQKFQGRVTITADRATATAYMEMSSLTSDDTAIYYCARDPYVYAGDDVWSLSRWGQGTPVIVSS
VL: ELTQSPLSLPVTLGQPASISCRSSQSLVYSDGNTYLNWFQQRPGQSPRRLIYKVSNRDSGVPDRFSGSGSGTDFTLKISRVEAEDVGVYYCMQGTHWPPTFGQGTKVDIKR
With B2, the binding result in assay [4] was “binds”.

B3: Fab L7 (Fab, V domains shown)
VH: VQLLEQSGAEVKKPGSSVKVTCKVPGDTFRSYVITWVRQAPGQGLEWLGGILPFFGTTNLAQKFQGRVTLTADESTTTAYMELSSLRAEDTAVYYCAKAGDLAFGGVIAGGVPHLSHFDPWGQGTLVTVSS
VL: ELTQSPGTLSLSPGERATLSCRASQSVPSSYLGWYQQKPGQAPRLLIYGASSRATGIPERFSGSGSGTDFTLTISRLEPEDFAVYYCQQYGSSLSFGQGTKVDLKR
Regarding B3, the binding result in assay [4] is recorded as “binds”.

B4: MAb AR1A (IgG1 from Fab B2) (antibody, V domains shown)
VH: LEQSGAEVKKPGSSVKVSCRASGSPYSSYTITWVRQAPGQGLEWMGGIILMTGKANYAQKFQGRVTITADRATATAYMEMSSLTSDDTAIYYCARDPYVYAGDDVRSLSRWGQGTPVIVSS
VL: not shown
notes: also called ARIA
In assay [1], B4 showed an IC50 of 5.7 nM. The half-maximal effective concentration (EC50) came to 3.8 nM in assay [2] and 2.6 nM in assay [3].
